Assay results from US20170044545.

Target: Autotaxin (ENPP2, NPP2) (Homo sapiens) (UniProt Q13822)
Assay: inhibition
Conditions: 2'-F pyrimidines, 2'-OH purines

## CGGAUACGUCUCACUUCGUCNNNNNNNNNNNNNNNNNNNNNNNNNNNNNNCAGAGCGUUUAGAGUGCGGUCCC [30N RNA pool]
  IC50: > 1000 nM

## GUACGAAGACGCAUCUCACNNNNNNNNNNNNNNNNNNNNNNNNNNNNNNNNNNNNNNNNGUUCCAUGUCCUGUUGCCACCC [40N RNA pool]
  IC50: > 1000 nM
